We go through six molecules from patent US20200109211A1 (ELSALYS BIOTECH, published 2020).

The target in assay [1] is T1, recombinant human CD160 protein, soluble form, with a C-terminal tag of 6 histidine residues (R&D SYSTEMS) (human, UniProt O95971 27-159, limits assumed, biotinylated with EZ-Link sulfo-NHS-LC-biotin for BLI and ELISA; not biotinylated when immobilised on the CM5 chip for SPR).
T1 construct: domain: soluble form; Bought protein; also called hCD160-his; biotinylated CD160
T1 sequence: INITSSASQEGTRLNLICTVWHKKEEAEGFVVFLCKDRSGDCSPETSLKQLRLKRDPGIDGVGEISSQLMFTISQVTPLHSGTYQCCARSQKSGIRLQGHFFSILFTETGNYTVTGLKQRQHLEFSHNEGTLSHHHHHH
Nature of the assay: BLI. In general terms: In BLI a coated tip is dipped into the sample, and binding shifts an interference pattern.

Assay [2] has as its target T1, recombinant human CD160 protein, …. The assay can be described thus: SPR (Biacore), design close to Example 2. In general terms: In SPR one partner is held on a chip, and binding of the other changes the refractive index at the surface.
In assay [3] the target is T2, human CD160 (CD160 GPI isoform) on cells (human, UniProt O95971 25-159, GPI anchor).
T2 construct: whole, on cells; Used for all cells said to carry human CD160: transfected CHO-S and E300 cells and cells that carry it naturally (YT2C2, blood NK, CD8+ T, T CD4, CLL cells); also called hCD160; CHO-S-hCD160 (clone 2G10)
T2 sequence (looked up): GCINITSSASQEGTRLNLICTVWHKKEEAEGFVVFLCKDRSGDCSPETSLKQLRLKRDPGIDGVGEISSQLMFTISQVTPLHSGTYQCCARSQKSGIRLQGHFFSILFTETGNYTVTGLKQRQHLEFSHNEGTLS
The assay can be described thus: flow cytometry on CHO-hCD160 transfectants. The method, then: The binding capacity of the anti-CD160 H7 antibodies and of the variants (D12 and A09) thereof in the IgG4 and IgG1 format and in the IgG1 E345K format was evaluated during the labelling of surface CD160 expressed in a recombinant line CHO-S-hCD160 (clone 2G10) in comparison with non-transfected CHO-S cells, by measuring the median fluorescence index (MFI) (see FIG. 1). For this, 5×10⁺⁵ 2G10 (CHO-S-CD160) and non-transfected CHO-S cells were labelled with 2 μg of each of these antibodies and also with the appropriate control isotypes. In FIG. 1, all the anti-CD160 tested (regardless of the isotype or the IgG format or the variant) specifically recognize human CD160 expressed recombinantly by the CHO-S cells.
In FIG. 1B, the IgG4 variants bind more efficiently to the CHO-hCD160 transfectants than H7 (which results in a median fluorescence increased by a factor of 2 compared with H7 IgG4 ELB01101 or with H7 IgG4 H310A-H435Q ELB01102), this being even in the presence of the H310A-H435Q mutations.

For assay [4], the target named is T2, human CD160 (CD160 GPI isoform) on cells. Nature of the assay: cell-based or functional assay.
Assay [5] concerns the target T1, recombinant human CD160 protein, …. Nature of the assay: BLI (repeats Table 9).
For assay [6] the target is unchanged. Nature of the assay: BLI, biotinylated CD160 at 10 nM on streptavidin sensor, antibody 3.13-100 nM.
The target in assay [7] is T2, human CD160 (CD160 GPI isoform) on cells. Nature of the assay: flow cytometry, percentage of labelled YT2C2 NK cells (2x10^5 cells), antibody 0.39 to 50 nM [panel C]. On the procedure:
The binding capacity of the anti-CD160 H7 antibody and of the H7 D12 variant in the IgG4, Fab and Fab-linker Fab format was evaluated during the labelling of surface CD160 expressed naturally on a clone of NK cell line (YT2C2), by measuring the percentage of cell labelled=percentage of binding (see FIG. 1C). For this, 2×10⁺⁵ YT2C2 cells were labelled with increasing concentration of antibodies (from 50 nM to 0.39 nM) and also with the appropriate control isotype. […] In FIG. 1C, IgG4 variants ELB01103 and ELB01104 bind more efficiently to the YT2C2 cells than the H7 IgG4 ELB01101 (which results in a EC₅₀ increased by a factor of 10 compared with H7 IgG4). This is also true for the Fab-linker-Fab format ELB01132. By contrast Fab format ELB01122 bind less efficiently to the YT2C2 cells than the H7 IgG4 ELB01101 (which results in a EC₅₀ decreased by a factor of 2 compared with H7 IgG4). This is certainly due to the monovalency of the Fab format.

For assay [8], the target named is T1, recombinant human CD160 protein, …. The assay can be described thus: BLI, biotinylated CD160 at 10 nM on streptavidin sensor, antibody 3.13-100 nM. The method, then:
(§1) All the experiments were carried out at 30° C. in the running buffer recommended by Fortebio (PBS with 0.1% (p/v) of bovine serum albumin (BSA) and 0.02% (v/v) Tween-20). This buffer was also used for diluting the various ligands and analytes. The samples deposited in a 96-well microplate (cat #738-0026, Dutscher) were shaken at 1000 revolutions per minute.
(§2) The dissociation constants and the association (kₒₙ) and dissociation (kdis) rate constants for each antibody were calculated by applying a 1:1 interaction model, with overall mathematical modelling of curves (fit) (Rmax bound by the sensor) on the ForteBio 9.0 data analysis software.
The source holds these as a separate data set.

The target is the same in assay [9]. The assay can be described thus: BLI (Octet K2), biotinylated hCD160-His on streptavidin sensor, antibody as analyte. On the procedure:
as §1
Between the measurements, the surfaces of the biosensor were regenerated by exposing them to 3 cycles of 5 sec in 10 mM glycine, pH 2, followed by 5 sec in running buffer. The association and dissociation phases were measured for 300 seconds. All the measurements were corrected for the basic drift by subtracting a reference well with a ligand subjected only to the running buffer.
as §2

The target is the same in assay [10]. Nature of the assay: BLI (repeats Table 7).
Assay [11] shares this target. Nature of the assay: BLI, biotinylated CD160 at 10 nM on streptavidin sensor, antibody 3.13-100 nM. On the procedure: as §2
The source holds these as a separate data set.

B1: D12 in the IgG1 format (antibody)
heavy: not shown
light: EIVLTQSPATLSLSPGERATLSCRASQSISNHLHWYQQKPGQAPRLLIKYASQSISGIPARFSGSGSGTDFTLTISSLEPEDFAVYFCQQSNSWPLTFGGGTKVEIKRTVAAPSVFIFPPSDEQLKSGTASVVCLLNNFYPREAKVQWKVDNALQSGNSQESVTEQDSKDSTYSLSSTLTLSKADYEKHKVYACEVTHQGLSSPVTKSFNRGEC
notes: also called ELB02102
Regarding B1, in assay [1], the “Gain in KD/respective IgG” value amounted to 1.9 fold. Moreover, in [2], the “Gain in KD/respective IgG” value was determined as 2.7 fold, the Kd is 4.5 nM, the koff was determined as 0.00113 s⁻¹ and the kon is 251000 M⁻¹ s⁻¹. For the same molecule, the “median fluorescence, factor against H7 IgG1” value (from here on “median fluorescence, factor”) in [3] came to 3 fold. The “EC50 of NK cell activation (IFN-γ, CD69), improvement against ELB02101” value in assay [4] is 2 to 3 logs. For the same molecule, in assay [5], the Kd was 1.55 nM, the koff is 0.000654 s⁻¹ and the kon stood at 422000 M⁻¹ s⁻¹. In assay [6], the Kd is 1.55 nM, the koff turned out to be 0.000654 s⁻¹ and the kon was determined as 422000 M⁻¹ s⁻¹.

B2: H7 D12 in the Fab linker Fab format (other)
heavy: QVQLVQSGAEVKKPGASVKVSCKASGYTFSDFWMQWIRQAPGQGLEWIGAIYPGDDDARVTQKFRGRATLTADKSTSTAYMELSSLRSEDTAVYYCARRGIAAVVGGFDYWGQGTTLTVSSASTKGPSVFPLAPSSKSTSGGTAALGCLVKDYFPEPVTVSWNSGALTSGVHTFPAVLQSSGLYSLSSVVTVPSSSLGTQTYICNVNHKPSNTKVDKRVEPKSCDKGGGGSGGGGSGGGGSQVQLVQSGAEVKKPGASVKVSCKASGYTFSDFWMQWIRQAPGQGLEWIGAIYPGDDDARVTQKFRGRATLTADKSTSTAYMELSSLRSEDTAVYYCARRGIAAVVGGFDYWGQGTTLTVSSASTKGPSVFPLAPSSKSTSGGTAALGCLVKDYFPEPVTVSWNSGALTSGVHTFPAVLQSSGLYSLSSVVTVPSSSLGTQTYICNVNHKPSNTKVDKRVEPKSCDK
light: B1 light
notes: two light chains follow from the format; also called ELB01132; D12 Fab linker Fab
In the case of B2, the “EC50 (read off the curve)” value in assay [7] was approximately 2 nM.

B3: A09 in the IgG1 format (antibody)
heavy: not shown
light: B1 light
notes: also called ELB02104; H7 A09 variant in IgG1 format
On to B3, for which the “Gain in KD/respective IgG” value in assay [1] turned out to be 2 fold. In [2], the “Gain in KD/respective IgG” value was 3 fold, the equilibrium dissociation constant (Kd) amounted to 3.9 nM, the koff was 0.000877 s⁻¹ and the kon was 223000 M⁻¹ s⁻¹. In addition, the “median fluorescence, factor” value in [3] was 3 fold. In assay [4], the “EC50 of NK cell activation (IFN-γ, CD69), improvement against ELB02101” value fell in the range of 2 to 3 logs. Moreover, in assay [5], the Kd came out at 1.47 nM, the dissociation rate constant (koff) was found to be 0.000651 s⁻¹ and the kon stood at 442000 M⁻¹ s⁻¹. For the same molecule, in assay [6], the Kd was 1.47 nM, the koff is 0.000651 s⁻¹ and the association rate constant (kon) is 442000 M⁻¹ s⁻¹.

B4: D12 in the IgG1 E345K format (antibody)
heavy: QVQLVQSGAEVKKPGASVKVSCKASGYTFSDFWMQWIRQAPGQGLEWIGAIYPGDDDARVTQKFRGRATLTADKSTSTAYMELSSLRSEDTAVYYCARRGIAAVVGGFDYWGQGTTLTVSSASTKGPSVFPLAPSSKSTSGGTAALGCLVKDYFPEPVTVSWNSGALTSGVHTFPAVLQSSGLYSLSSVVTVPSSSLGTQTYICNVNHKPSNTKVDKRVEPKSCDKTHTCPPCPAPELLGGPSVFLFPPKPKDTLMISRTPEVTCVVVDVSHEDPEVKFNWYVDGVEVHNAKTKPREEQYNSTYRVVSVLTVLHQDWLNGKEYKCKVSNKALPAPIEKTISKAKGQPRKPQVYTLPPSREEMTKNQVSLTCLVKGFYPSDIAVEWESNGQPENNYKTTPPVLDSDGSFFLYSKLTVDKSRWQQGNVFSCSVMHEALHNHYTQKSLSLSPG
light: B1 light
notes: also called ELB02112
As for B4, in [8], the Kd came out at 1.52 nM, the koff was found to be 0.000679 s⁻¹ and the kon worked out at 447000 M⁻¹ s⁻¹. Moreover, in [3], the “median fluorescence, factor” value turned out to be 3 fold. Also, in assay [4], the “EC50 of IFN-gamma production by NK cells, additional improvement against the IgG1 variants” value is 2 logs and the “EC50 of IFN-gamma production by NK cells, improvement against ELB02101” value came out at 4 logs.

B5: A09 in the IgG1 E345K format (antibody)
heavy: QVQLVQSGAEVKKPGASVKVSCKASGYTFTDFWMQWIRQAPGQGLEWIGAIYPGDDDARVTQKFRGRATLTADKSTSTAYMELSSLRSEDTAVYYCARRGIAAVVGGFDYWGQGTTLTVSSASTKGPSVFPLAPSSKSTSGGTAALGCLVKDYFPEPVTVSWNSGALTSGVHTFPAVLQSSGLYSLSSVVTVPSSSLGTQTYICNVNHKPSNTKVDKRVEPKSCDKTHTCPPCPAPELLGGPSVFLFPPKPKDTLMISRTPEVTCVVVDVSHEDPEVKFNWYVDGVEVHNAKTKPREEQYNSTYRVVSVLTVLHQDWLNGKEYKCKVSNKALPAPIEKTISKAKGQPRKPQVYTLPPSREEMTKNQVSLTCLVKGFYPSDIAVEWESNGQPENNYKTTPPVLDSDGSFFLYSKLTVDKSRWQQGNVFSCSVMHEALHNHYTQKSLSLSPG
light: B1 light
notes: also called ELB02114
On to B5, for which, in assay [8], the Kd is 1.93 nM, the koff turned out to be 0.000825 s⁻¹ and the kon is 427000 M⁻¹ s⁻¹. In addition, in assay [3], the “median fluorescence, factor” value worked out at 3 fold. Further, in [4], the “EC50 of IFN-gamma production by NK cells, additional improvement against the IgG1 variants” value stood at 2 logs and the “EC50 of IFN-gamma production by NK cells, improvement against ELB02101” value is 4 logs.

B6: H7 IgG4 S228P/R409K (antibody)
heavy: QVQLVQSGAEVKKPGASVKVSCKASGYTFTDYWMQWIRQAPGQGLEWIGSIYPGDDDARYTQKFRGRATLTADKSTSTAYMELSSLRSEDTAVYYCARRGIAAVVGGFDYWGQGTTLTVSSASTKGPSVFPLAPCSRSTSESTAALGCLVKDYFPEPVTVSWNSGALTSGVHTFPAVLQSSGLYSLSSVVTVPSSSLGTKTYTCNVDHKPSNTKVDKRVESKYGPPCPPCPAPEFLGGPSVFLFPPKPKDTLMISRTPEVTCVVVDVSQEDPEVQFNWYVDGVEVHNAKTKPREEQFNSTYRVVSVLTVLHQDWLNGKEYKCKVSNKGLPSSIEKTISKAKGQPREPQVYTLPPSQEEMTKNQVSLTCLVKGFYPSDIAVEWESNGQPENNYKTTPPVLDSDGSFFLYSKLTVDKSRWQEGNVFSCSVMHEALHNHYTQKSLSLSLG
light: B1 light
notes: also called ELB01101; H7 IgG4 WT
As to B6, in assay [9], the “Binding response, at 50 nM of anti-CD160” value was 0.6 nm (arbitrary units); the dissociation constant (Kd) was determined as 4.49 nM; the koff came to 0.00157 s⁻¹; the kon turned out to be 350000 M⁻¹ s⁻¹. In [10], the Kd came to 2.61 nM, the koff stood at 0.00123 s⁻¹ and the kon came out at 469000 M⁻¹ s⁻¹. Moreover, in [2], the Kd came out at 13.1 nM, the koff came to 0.00285 s⁻¹ and the kon was found to be 218000 M⁻¹ s⁻¹. Besides, in assay [11], the Kd is 2.61 nM, the koff is 0.00123 s⁻¹ and the kon came out at 469000 M⁻¹ s⁻¹.

One may read the Kd as the concentration at which binding is half-saturated. One may read the koff as the first-order rate constant of dissociation. The term kon denotes the rate constant with which the complex forms. Usually EC50 (read off the curve) stands for the concentration needed to bring the measured effect to its halfway point. Lower therefore signals an effect from little substance.
